Results published in patent US5516685A, “Isolation and characterization of a novel protease from Streptomyces lividans” (Amgen Inc., priority 1994, dated 1996).
Like-named read-outs stand apart in the source and are kept apart here.

Columns and labels:
Protease X = type: biochemical, Streptomyces lividans; details: for effect of additive on the protease's activity: additive at 20 mM
Method: (§1) The characteristics of the protease reaction catalyzed by this enzyme were determined using the synthetic substrate assay where various synthetic substrates are dissolved at a concentration of 100 mg/ml in dimethylsulfoxide (DMSO). 200 μl aliquots from bacterial culture supernatants were mixed with 780 μl of 5 mM Tris, 25 mM NaCl, pH 7, and incubated at the desired temperature Digestions were then initiated by the addition of 20 μl of substrate and the rate of absorbance at 405 nm was followed for several minutes.
^a The assays were performed for 2 min. at 65° C. at pH 7.5.

[1] = synthetic substrate assay of protease-containing S. lividans (pHL45) broth; type: biochemical; details: for Activity (dA/min): control broth activity subtracted
Method: as §1
Here, the broth from recombinant S. lividans containing pHL45, as well as the broth from an identical S. lividans culture containing a control plasmid only (pIJ699), were compared for proteolytic activity by directly assaying activity in the presence of several different substrates. This experiment was conducted at 37° C. pH 7.0 and 65° C. pH 7 5, in the presence of 10 mM calcium. The substrates tested were: succinyl-ala-ala-pro-phe-pNitroanilide, succinyl-tyr-leu-val-pNitroanilide, ala-pNitroanilide, and leu-pNitroanilide. […] The temperature optimum for the proteolytic reaction was determined using succinyl-ala-ala-pro-phe-pNitroanilide in 10 mM Tris, 25 mM NaCl, pH 7.0.

azocasein = azocasein assay; type: biochemical; details: longer incubation times
Method: After washing the column with buffer, the dialysed protein sample was loaded onto the column. The protein was eluted using a linear gradient of 0.0 to 0.5M NaCl. The eluate's A280 was monitored and 8 ml fractions were collected. […] Following the incubation, the assay reaction was terminated by the addition of 200 μl of 10% trichloroacetic acid and incubation at room temperature for several minutes. The solutions were then neutralized by adding 200 μl 0.2N NaOH to each sample. Samples were centrifuged 2 min. The supernatants were removed and the activity of the fractions was determined from the increase in absorbance at 420 nm.

proteins = assay: peptide mapping of the protease; type: biochemical; details: fragments generated during peptide mapping of the protease
[2] = 20 mM additive, 2 min. at 65° C. at pH 7.5, 0.170 without additive

## [Ca+2].[Cl-].[Cl-] [CaCl2]
Protease X; 5 mM additive, 2 min. at 65° C. at pH 7.5, 0.170 without additive
  Protease activity (dA/min) in presence of additive: 0.235 dA/min
Protease X; [2]
  Protease activity (dA/min) in presence of additive: 0.251 dA/min
Protease X; 65° C., pH 7.5
  effect of additive on the protease's activity: enhanced

## O=C(O)CN(CCN(CC(=O)O)CC(=O)O)CC(=O)O [EDTA, reference compound]
Protease X; pH 7.5
  Protease activity (dA/min) in presence of additive: 0.120 dA/min

## [Cl-].[Cl-].[Mg+2] [MgCl2]
Protease X; [2]
  Protease activity (dA/min) in presence of additive: 0.250 dA/min
Protease X; 65° C., pH 7.5
  effect of additive on the protease's activity: appears to enhance

## O=S(=O)(F)Cc1ccccc1 [PMSF, reference compound]
Protease X; 1 mM additive, 2 min. at 65° C. at pH 7.5, 0.170 without additive
  Protease activity (dA/min) in presence of additive: 0.000 dA/min
Protease X; addition of PMSF, 65° C., pH 7.5
  effect of additive on the protease reaction: totally inhibited

B1: Protease X: novel protease [SEQ ID NO: 2] secreted into the culture medium by S. lividans (protein)
chain: MRITLPLLSTAVGLGLTAAVLGTGPAATAAAPQEPVRAAQLGYQPSAGSGEDAAANRAFFEAVVKSVAEKRAANPSAAAAVTVYYSATNAPSFRSQISRSAQIWNSSVSNVRLAESSSGADFAYYEGNDSRGSYASTDGHGSGYIFLDYRQNQQYDSTRVTAHETGHVLGLPDHYSGPCSELMSGGGPGPSCTNPYPNSTERSRVNQLWAYGFQAALDKALEKASQR
[1]; 10 mM Tris, 25 mM NaCl, pH 7.0
  temperature optimum for cleavage of succinyl-ala-ala-pro-phe-pNitroanilide: 65 °C
[1]; 65° C.
  time for which catalytic rate remains linear: at least 2 min
[1]; 65° C. reaction
  pH optimum: 7.5 pH
[1]; 70° C., initial catalytic rate very fast, enzyme apparently becomes denatured
  thermal stability of the activity: activity drops off dramatically
[1]; Temperature 30.000, 10 mM Tris, 25 mM NaCl, pH 7.0
  Activity (dA/min): 0.008 dA/min
[1]; Temperature 40.000, 10 mM Tris, 25 mM NaCl, pH 7.0
  Activity (dA/min): 0.017 dA/min
[1]; Temperature 50.000, 10 mM Tris, 25 mM NaCl, pH 7.0
  Activity (dA/min): 0.042 dA/min
[1]; Temperature 60.000, 10 mM Tris, 25 mM NaCl, pH 7.0
  Activity (dA/min): 0.074 dA/min
[1]; Temperature 65.000, 10 mM Tris, 25 mM NaCl, pH 7.0
  Activity (dA/min): 0.085 dA/min
[1]; Temperature 70.000, 10 mM Tris, 25 mM NaCl, pH 7.0
  Activity (dA/min): 0.047 dA/min
[1]; no additive, 2 min. at 65° C. at pH 7.5
  Activity (dA/min): 0.170 dA/min
[1]; only substrate of four tested, 37° C. pH 7.0 and 65° C. pH 7 5, 10 mM calcium
  proteolytic activity on substrate compared with control broth (pIJ699): showed activity above that of the control
[1]; pH 6.000, 65° C. reaction
  Activity (dA/min): 0.048 dA/min
[1]; pH 7.000, 65° C. reaction
  Activity (dA/min): 0.085 dA/min
[1]; pH 7.500, 65° C. reaction
  Activity (dA/min): 0.190 dA/min
[1]; pH 8.000, 65° C. reaction
  Activity (dA/min): 0.105 dA/min
azocasein
  temperature optimum in the azocasein assay: 60 °C
proteins
  cleavage site preference: preferentially processes proteins amino-terminally of tyrosine
